The source of these data is patent publication US20220372155A1 (LYVGEN BIOPHARMA, published 2022).

The labels stand for the following.
T1: human B7H4 expressed on CHO cells (human, UniProt Q7Z7D3 25-282)
T1 construct: whole, on cells; also called VCTN1
T1 sequence (looked up): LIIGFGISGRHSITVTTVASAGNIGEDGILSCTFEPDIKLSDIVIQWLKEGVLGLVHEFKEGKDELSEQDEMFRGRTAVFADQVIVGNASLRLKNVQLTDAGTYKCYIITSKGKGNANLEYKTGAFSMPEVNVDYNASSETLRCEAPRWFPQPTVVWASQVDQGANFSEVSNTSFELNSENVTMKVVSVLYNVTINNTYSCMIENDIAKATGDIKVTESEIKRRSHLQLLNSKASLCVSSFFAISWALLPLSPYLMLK

B1: Ly817 (bispecific antibody, human IgG1, kappa)
heavy: QVTLKESGPALVKPTQTLTLTCTFSGFSLSTSGTCVSWIRQPPGKALEWLATICWEDSKGYNPSLKSRLTISKDTSKNQAVLTMTNMDPVDTATYYCARREDSGYFWFPYWGQGTLVTVSSASTKGPSVFPLAPSSKSTSGGTAALGCLVKDYFPEPVTVSWNSGALTSGVHTFPAVLQSSGLYSLSSVVTVPSSSLGTQTYICNVNHKPSNTKVDKKVEPKSCDKTHTCPPCPAPELLGPSVFLFPPKPKDTLMISRTPEVTCVVVDVSHEDPEVKFNWYVDGVEVHNAKTKPREEQYNSTYRVVSVLTVLHQDWLNGKEYKCKVSNKALPAPIEKTISKAKGQPREPQVYTLPPSREEMTKNQVSLTCLVKGFYPSDIAVEWESNGQPENNYKTTPPVLDSDGSFFLYSKLTVDKSRWQQGNVFSCSVMHEALHNHYTQKSLSLSPGK
light: NIQMTQSPSSLSASVGDRVTITCKAGQNVNNYLAWYQQKPGKAPKVLIFNANSLQTGVPSRFSGSGSGTDFTLTISSLQPEDFATYYCQQYNSWPTFGGGTKVEIKRTVAAPSVFIFPPSDEQLKSGTASVVCLLNNFYPREAKVQWKVDNALQSGNSQESVTEQDSKDSTYSLSSTLTLSKADYEKHKVYACEVTHQGLSSPVTKSFNRGECGGGGSGGGGSGGGGSGGGGSDIQMTQSPSSLSASVGDRVTITCKASQNIYIYLNWYQQKPGKAPKLLIYNTNNLQTGVPSRFSGSGSGTDFTLTISSLQPEDFATYYCLQHSSRRTFGGGTKVEIKGGGGSGGGGSGGGGSGGGGSQVQLVESGGGLVQPGGSLKLSCATSGFNFNDYFMNWVRQASGKGLEWVGQIRNKNYNYATYYTESLEGRVTISRDDSKNTAYLQMNSLKTEDTAVYYCTSYYYDGFADYFDYWGQGTTVTVSS
notes: Ly516 HC (IgG1 mutated Fc) + Ly516 LC-TM740 scFv VL-VH
B2: Ly818 (bispecific antibody, human IgG1, kappa)
heavy: B1 heavy
light: NIQMTQSPSSLSASVGDRVTITCKAGQNVNNYLAWYQQKPGKAPKVLIFNANSLQTGVPSRFSGSGSGTDFTLTISSLQPEDFATYYCQQYNSWPTFGGGTKVEIKRTVAAPSVFIFPPSDEQLKSGTASVVCLLNNFYPREAKVQWKVDNALQSGNSQESVTEQDSKDSTYSLSSTLTLSKADYEKHKVYACEVTHQGLSSPVTKSFNRGECGGGGSGGGGSGGGGSGGGGSQVQLVESGGGLVQPGGSLKLSCATSGFNFNDYFMNWVRQASGKGLEWVGQIRNKNYNYATYYTESLEGRVTISRDDSKNTAYLQMNSLKTEDTAVYYCTSYYYDGFADYFDYWGQGTTVTVSSGGGGSGGGGSGGGGSGGGGSDIQMTQSPSSLSASVGDRVTITCKASQNIYIYLNWYQQKPGKAPKLLIYNTNNLQTGVPSRFSGSGSGTDFTLTISSLQPEDFATYYCLQHSSRRTFGGGTKVEIK
notes: Ly516 HC (IgG1 mutated Fc) + Ly516 LC-TM740 scFv VH-VL
B3: Ly820 (bispecific antibody, human IgG1, kappa)
heavy: B1 heavy
light: NIQMTQSPSSLSASVGDRVTITCKAGQNVNNYLAWYQQKPGKAPKVLIFNANSLQTGVPSRFSGSGSGTDFTLTISSLQPEDFATYYCQQYNSWPTFGGGTKVEIKRTVAAPSVFIFPPSDEQLKSGTASVVCLLNNFYPREAKVQWKVDNALQSGNSQESVTEQDSKDSTYSLSSTLTLSKADYEKHKVYACEVTHQGLSSPVTKSFNRGECGGGGSGGGGSGGGGSGGGGSEVQLVESGGGLVQPGGSLRLSCAASGFTFTNYGLHWVRQAPGKGLEWVSSISPSGGVTYYRDSVKGRFTISRDNSKNTLYLQMNSLRAEDTAVYYCAKPFLGWGGANWIAHWGQGTLVTVSSGGGGSGGGGSGGGGSGGGGSDIQMTQSPSSLSASVGDRVTITCLASEDISNDLAWYQQKPGKAPKLLIYFVDRLLDGVPSRFSGSGSGTDFTLTISSLQPEDFATYYCQQSYKYPPTFGQGTKLEIK
notes: Ly516 HC (IgG1 mutated Fc) + Ly516 LC-TM559 scFv VH-VL
B4: Ly819 (bispecific antibody, human IgG1, kappa)
heavy: B1 heavy
light: NIQMTQSPSSLSASVGDRVTITCKAGQNVNNYLAWYQQKPGKAPKVLIFNANSLQTGVPSRFSGSGSGTDFTLTISSLQPEDFATYYCQQYNSWPTFGGGTKVEIKRTVAAPSVFIFPPSDEQLKSGTASVVCLLNNFYPREAKVQWKVDNALQSGNSQESVTEQDSKDSTYSLSSTLTLSKADYEKHKVYACEVTHQGLSSPVTKSFNRGECGGGGSGGGGSGGGGSGGGGSDIQMTQSPSSLSASVGDRVTITCLASEDISNDLAWYQQKPGKAPKLLIYFVDRLLDGVPSRFSGSGSGTDFTLTISSLQPEDFATYYCQQSYKYPPTFGQGTKLEIKGGGGSGGGGSGGGGSGGGGSEVQLVESGGGLVQPGGSLRLSCAASGFTFTNYGLHWVRQAPGKGLEWVSSISPSGGVTYYRDSVKGRFTISRDNSKNTLYLQMNSLRAEDTAVYYCAKPFLGWGGANWIAHWGQGTLVTVSS
notes: Ly516 HC (IgG1 mutated Fc) + Ly516 LC-TM559 scFv VL-VH
B5: Ly343 (bispecific antibody, human IgG1, kappa)
heavy: QVQLVQSGAEVKKPGASVKVSCKASGYTFTDFWMSWVRQAPGQGLEWMGQIYPNTGTTHSNEKFKGRVTMTRDTSTSTVYMELSSLRSEDTAVYYCARSYHISTTPNWFAYWGQGTLVTVSSASTKGPSVFPLAPSSKSTSGGTAALGCLVKDYFPEPVTVSWNSGALTSGVHTFPAVLQSSGLYSLSSVVTVPSSSLGTQTYICNVNHKPSNTKVDKKVEPKSCDKTHTCPPCPAPELLGPSVFLFPPKPKDTLMISRTPEVTCVVVDVSHEDPEVKFNWYVDGVEVHNAKTKPREEQYNSTYRVVSVLTVLHQDWLNGKEYKCKVSNKALPAPIEKTISKAKGQPREPQVYTLPPSREEMTKNQVSLTCLVKGFYPSDIAVEWESNGQPENNYKTTPPVLDSDGSFFLYSKLTVDKSRWQQGNVFSCSVMHEALHNHYTQKSLSLSPG
light: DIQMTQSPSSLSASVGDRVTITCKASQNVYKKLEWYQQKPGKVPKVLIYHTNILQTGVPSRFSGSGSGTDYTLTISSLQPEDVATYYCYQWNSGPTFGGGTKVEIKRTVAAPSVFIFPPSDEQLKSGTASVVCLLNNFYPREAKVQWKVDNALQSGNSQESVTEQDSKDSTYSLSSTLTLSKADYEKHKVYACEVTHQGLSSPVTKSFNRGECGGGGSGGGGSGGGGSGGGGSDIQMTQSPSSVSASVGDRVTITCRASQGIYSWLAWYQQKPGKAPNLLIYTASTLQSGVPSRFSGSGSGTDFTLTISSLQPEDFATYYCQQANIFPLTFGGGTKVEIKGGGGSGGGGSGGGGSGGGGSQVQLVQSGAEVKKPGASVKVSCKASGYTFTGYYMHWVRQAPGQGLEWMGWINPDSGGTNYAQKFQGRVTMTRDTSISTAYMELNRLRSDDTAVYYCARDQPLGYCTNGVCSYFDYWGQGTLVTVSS
notes: Ly076 HC (IgG1 mutated Fc) + Ly076 LC-Ly253 scFv VL-VH
B6: Ly497 (bispecific antibody, human IgG1, kappa)
heavy: EVQLVESGGGLVKPGGSLKLSCAASGFTFSDSGMHWVRQAPEKGLEWITYINSGSSTIYYADSVKGRFTISRDNAKNTLFLQMTSLRSEDTAMYYCARGRGYAMDYWGQGTSVTVSSASTKGPSVFPLAPSSKSTSGGTAALGCLVKDYFPEPVTVSWNSGALTSGVHTFPAVLQSSGLYSLSSVVTVPSSSLGTQTYICNVNHKPSNTKVDKKVEPKSCDKTHTCPPCPAPELLGPSVFLFPPKPKDTLMISRTPEVTCVVVDVSHEDPEVKFNWYVDGVEVHNAKTKPREEQYNSTYRVVSVLTVLHQDWLNGKEYKCKVSNKALPAPIEKTISKAKGQPREPQVYTLPPSREEMTKNQVSLTCLVKGFYPSDIAVEWESNGQPENNYKTTPPVLDSDGSFFLYSKLTVDKSRWQQGNVFSCSVMHEALHNHYTQKSLSLSPGK
light: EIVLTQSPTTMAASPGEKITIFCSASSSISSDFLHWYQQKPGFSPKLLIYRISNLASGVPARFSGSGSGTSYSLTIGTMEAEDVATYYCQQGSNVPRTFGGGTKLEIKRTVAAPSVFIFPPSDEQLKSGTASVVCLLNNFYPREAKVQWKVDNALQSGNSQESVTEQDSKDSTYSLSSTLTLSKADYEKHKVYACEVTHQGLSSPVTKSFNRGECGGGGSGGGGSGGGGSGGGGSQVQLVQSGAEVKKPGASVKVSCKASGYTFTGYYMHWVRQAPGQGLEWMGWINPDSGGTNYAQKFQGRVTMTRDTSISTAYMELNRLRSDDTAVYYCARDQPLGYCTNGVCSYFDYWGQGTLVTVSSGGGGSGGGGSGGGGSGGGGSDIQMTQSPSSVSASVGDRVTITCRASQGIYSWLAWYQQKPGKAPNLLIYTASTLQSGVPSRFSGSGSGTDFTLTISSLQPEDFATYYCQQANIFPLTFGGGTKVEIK
notes: Ly366 HC (IgG1 mutated Fc) + Ly366 LC-Ly253 scFv VH-VL
B7: Ly342 (bispecific antibody, human IgG1, kappa)
heavy: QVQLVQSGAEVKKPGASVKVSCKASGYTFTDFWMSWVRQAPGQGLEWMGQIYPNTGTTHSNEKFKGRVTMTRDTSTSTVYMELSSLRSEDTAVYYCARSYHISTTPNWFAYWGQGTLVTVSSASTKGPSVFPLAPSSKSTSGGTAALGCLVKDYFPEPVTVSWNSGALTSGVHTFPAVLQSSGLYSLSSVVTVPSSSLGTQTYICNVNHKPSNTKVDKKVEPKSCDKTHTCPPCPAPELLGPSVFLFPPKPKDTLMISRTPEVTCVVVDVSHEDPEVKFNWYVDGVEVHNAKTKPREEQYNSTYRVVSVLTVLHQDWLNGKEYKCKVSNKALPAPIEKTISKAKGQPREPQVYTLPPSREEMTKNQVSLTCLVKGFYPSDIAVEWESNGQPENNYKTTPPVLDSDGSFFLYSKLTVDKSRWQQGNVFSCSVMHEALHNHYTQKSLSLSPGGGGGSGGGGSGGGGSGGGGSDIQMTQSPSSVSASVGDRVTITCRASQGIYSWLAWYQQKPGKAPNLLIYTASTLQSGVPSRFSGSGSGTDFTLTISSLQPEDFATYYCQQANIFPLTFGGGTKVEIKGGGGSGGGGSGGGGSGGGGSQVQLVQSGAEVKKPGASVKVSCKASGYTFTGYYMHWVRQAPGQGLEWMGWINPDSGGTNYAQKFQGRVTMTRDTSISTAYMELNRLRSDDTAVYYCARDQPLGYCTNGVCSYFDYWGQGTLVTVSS
light: DIQMTQSPSSLSASVGDRVTITCKASQNVYKKLEWYQQKPGKVPKVLIYHTNILQTGVPSRFSGSGSGTDYTLTISSLQPEDVATYYCYQWNSGPTFGGGTKVEIKRTVAAPSVFIFPPSDEQLKSGTASVVCLLNNFYPREAKVQWKVDNALQSGNSQESVTEQDSKDSTYSLSSTLTLSKADYEKHKVYACEVTHQGLSSPVTKSFNRGEC
notes: Ly076 HC (IgG1 mutated Fc)-Ly253 scFv VL-VH + Ly076 LC
B8: Ly474 (bispecific antibody, human IgG1, kappa)
heavy: EVQLVESGGDLVKPGGSLKLSCAASGFTFSSYGMSWVRQTPDKRLEWVAAISTGGSYTYYPDSVKGRFTISRDTATNTLYLQMSTLKSEDTAMYYCTRRGATGSWFAYWGQGTLVTVSAASTKGPSVFPLAPSSKSTSGGTAALGCLVKDYFPEPVTVSWNSGALTSGVHTFPAVLQSSGLYSLSSVVTVPSSSLGTQTYICNVNHKPSNTKVDKKVEPKSCDKTHTCPPCPAPELLGPSVFLFPPKPKDTLMISRTPEVTCVVVDVSHEDPEVKFNWYVDGVEVHNAKTKPREEQYNSTYRVVSVLTVLHQDWLNGKEYKCKVSNKALPAPIEKTISKAKGQPREPQVYTLPPSREEMTKNQVSLTCLVKGFYPSDIAVEWESNGQPENNYKTTPPVLDSDGSFFLYSKLTVDKSRWQQGNVFSCSVMHEALHNHYTQKSLSLSPGGGGGSGGGGSGGGGSGGGGSDIQMTQSPSSLSASVGDRVTITCKASQNIYIYLNWYQQKPGKAPKLLIYNTNNLQTGVPSRFSGSGSGTDFTLTISSLQPEDFATYYCLQHSSRRTFGGGTKVEIKGGGGSGGGGSGGGGSGGGGSQVQLVESGGGLVQPGGSLKLSCATSGFNFNDYFMNWVRQASGKGLEWVGQIRNKNYNYATYYTESLEGRVTISRDDSKNTAYLQMNSLKTEDTAVYYCTSYYYDGFADYFDYWGQGTTVTVSS
light: DILMTQSPSSMSVSLGDTVSITCHASQGINNNIGWLQRKPGKSFKGLIYHGTNLEDGVPSRFSGSGSGADYSLTISSLESEDFADYYCVQYVQFPRTFGGGTKLEIKRTVAAPSVFIFPPSDEQLKSGTASVVCLLNNFYPREAKVQWKVDNALQSGNSQESVTEQDSKDSTYSLSSTLTLSKADYEKHKVYACEVTHQGLSSPVTKSFNRGEC
notes: Ly361 HC (IgG1 mutated Fc)-TM740 scFv VL-VH + Ly361 LC

T3 sequence (Q15116 25-288): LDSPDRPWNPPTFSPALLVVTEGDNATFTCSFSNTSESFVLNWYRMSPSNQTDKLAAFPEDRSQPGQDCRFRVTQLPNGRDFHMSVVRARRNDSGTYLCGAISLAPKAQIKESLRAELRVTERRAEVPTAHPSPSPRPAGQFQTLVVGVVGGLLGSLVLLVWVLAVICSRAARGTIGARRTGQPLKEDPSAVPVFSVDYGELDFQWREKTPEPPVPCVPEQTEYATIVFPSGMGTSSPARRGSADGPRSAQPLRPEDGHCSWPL
T2 sequence (P25942 21-277): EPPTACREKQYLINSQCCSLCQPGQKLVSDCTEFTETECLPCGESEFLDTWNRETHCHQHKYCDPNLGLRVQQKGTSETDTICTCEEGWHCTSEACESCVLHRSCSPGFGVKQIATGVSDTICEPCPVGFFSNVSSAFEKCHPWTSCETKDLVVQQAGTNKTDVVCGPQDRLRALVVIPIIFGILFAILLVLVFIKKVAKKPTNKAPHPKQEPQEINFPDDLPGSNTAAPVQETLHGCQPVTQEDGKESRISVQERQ

The first assay concerns the target T2, human CD40 expressed on CHO cells (human, UniProt P25942 21-277).
T2 construct: whole, on cells; also used for the reporter cells over-expressing human CD40; also called cellular CD40; CHO-CD40 cells
In words: FACS, CHO cells. Background: Flow cytometry measures light scatter and fluorescence of single cells or particles in a stream.
In the case of B1, the binding result is “binds”.
For the molecule B2, the binding result is listed as “binds”.
On the same count and under the same terms, with B3 the entry was “binds”; with B4, “binds”; with B5, “binds”.
Same read-out and setting: with B6 the entry was “binds”.
On to B7, for which the binding result is recorded as “binds”.
Still for that read-out and setting: with B8 the entry was “binds”.

A further assay addresses T3, human PD-1 expressed on CHO cells (human, UniProt Q15116 25-288).
T3 construct: whole, on cells; also used for human PD-1 on Jurkat reporter cells; also called Jurkat/NFkB-Luci/PD-1 cells
The experiment in a line: FACS, CHO cells.
With B1, the binding result was “binds”.
Take B2: the binding result is on record as “binds”.
On to B3, for which the binding result is reported as “binds”.
Turning to B4, the binding result is “binds”.

The target of a further assay is T1, human B7H4 expressed on CHO cells. The experiment in a line: FACS, CHO cells.
Take B6: the binding result was “binds”.
Take B8: the binding result is listed as “binds”.

For a further assay, the target named is T4, Ly090 (human CD40 ECD protein with His tag) (human, UniProt P25942 21-193).
T4 construct: extracellular domain; also called human CD40 ECD protein (His tag); recombinant human CD40; not shown: His tag
T4 sequence (P25942 21-193): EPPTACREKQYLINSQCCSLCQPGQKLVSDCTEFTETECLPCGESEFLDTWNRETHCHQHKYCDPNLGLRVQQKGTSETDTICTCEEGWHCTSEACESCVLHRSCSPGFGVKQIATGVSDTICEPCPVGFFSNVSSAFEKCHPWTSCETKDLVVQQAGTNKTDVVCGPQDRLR
In words: bridging ELISA, coated CD40 ECD-His, soluble PD-L1 ECD-mFc. As to the method:
Exemplary anti-PD-L1/CD40 bi-specific antibodies were analyzed by ELISA for their simultaneous binding to recombinant human PD-L1 and human CD40. Briefly, Ly090 (human CD40 ECD protein with His tag) was diluted and coated onto an ELISA plate with a volume of 100 μL/well by incubation at 4° C. overnight. The next day, the plate was blocked by PBST-BSA buffer, then serially diluted samples of anti-PD-L1/CD40 bi-specific antibodies were pipetted into appropriate wells at 50 μL/well, and the plate was incubated for 1 h followed by Washing. Human PD-L1 ECD protein (mouse IgG2a Fc tag) was added into the plate at 50 μL/well. After 1-hour incubation at room temperature, HRP-conjugated anti-Mouse IgG, Fc G2a antibody was added into the plate at 100 μL/well. The plate was incubated for 1 hour at room temperature followed by washing. TMB substrate solution was added at 100 μL/well and the color development was stopped by adding 100 uL/well Stop Solution (2N H₂SO₄). Absorbance at 450 nm and 620 nm was read by Tecan F200 Pro plate reader. GraphPad 7.0, “[Agonist] vs. response—Variable slope (four parameters)” was used to plot the binding data and calculate binding EC50 values.
For B5, the binding result was “binds”.
On to B7, for which the binding result is on record as “binds”.
